From patent US20230072197A1 (KOREA UNIVERSITY RESEARCH AND BUSINESS FOUNDATION, published 2023)

Biological target: human FcRn (probe in the FACS analysis of bacterially displayed Fc variants) (human, UniProt P55899 24-297; P61769 21-119, limits assumed)
Test: FACS of bacterially displayed Fc variants with human FcRn, pH 6.0

Row | binding result | Binder
1 | binds | Fc variant L309G/Q311L/M428L (bacterial display) (other, also called Q311L in M428L and L309G Fc variant) DKTHTCPPCPAPELLGGPSVFLFPPKPKDTLMISRTPEVTCVVVDVSHEDPEVKFNWYVDGVEVHNAKTKPREEQYNSTYRVVSVLTVGHLDWLNGKEYKCKVSNKALPAPIEKTISKAKGQPREPQVYTLPPSRDELTKNQVSLTCLVKGFYPSDIAVEWESNGQPENNYKTTPPVLDSDGSFFLYSKLTVDKSRWQQGNVFSCSVLHEALHNHYTQKSLSLSPGK
2 | binds | Fc variant L309G/Q311H/M428L (bacterial display) (other, also called Q311H in M428L and L309G Fc variant) DKTHTCPPCPAPELLGGPSVFLFPPKPKDTLMISRTPEVTCVVVDVSHEDPEVKFNWYVDGVEVHNAKTKPREEQYNSTYRVVSVLTVGHHDWLNGKEYKCKVSNKALPAPIEKTISKAKGQPREPQVYTLPPSRDELTKNQVSLTCLVKGFYPSDIAVEWESNGQPENNYKTTPPVLDSDGSFFLYSKLTVDKSRWQQGNVFSCSVLHEALHNHYTQKSLSLSPGK
3 | binds | Fc variant L309G/Q311K/M428L (bacterial display) (other, also called Q311K in M428L and L309G Fc variant) DKTHTCPPCPAPELLGGPSVFLFPPKPKDTLMISRTPEVTCVVVDVSHEDPEVKFNWYVDGVEVHNAKTKPREEQYNSTYRVVSVLTVGHKDWLNGKEYKCKVSNKALPAPIEKTISKAKGQPREPQVYTLPPSRDELTKNQVSLTCLVKGFYPSDIAVEWESNGQPENNYKTTPPVLDSDGSFFLYSKLTVDKSRWQQGNVFSCSVLHEALHNHYTQKSLSLSPGK
4 | binds | Fc variant L309G/Q311T/M428L (bacterial display) (other, also called Q311T in M428L and L309G Fc variant) DKTHTCPPCPAPELLGGPSVFLFPPKPKDTLMISRTPEVTCVVVDVSHEDPEVKFNWYVDGVEVHNAKTKPREEQYNSTYRVVSVLTVGHTDWLNGKEYKCKVSNKALPAPIEKTISKAKGQPREPQVYTLPPSRDELTKNQVSLTCLVKGFYPSDIAVEWESNGQPENNYKTTPPVLDSDGSFFLYSKLTVDKSRWQQGNVFSCSVLHEALHNHYTQKSLSLSPGK
5 | binds | Fc variant L309G/Q311Y/M428L (bacterial display) (other, also called Q311Y in M428L and L309G Fc variant) DKTHTCPPCPAPELLGGPSVFLFPPKPKDTLMISRTPEVTCVVVDVSHEDPEVKFNWYVDGVEVHNAKTKPREEQYNSTYRVVSVLTVGHYDWLNGKEYKCKVSNKALPAPIEKTISKAKGQPREPQVYTLPPSRDELTKNQVSLTCLVKGFYPSDIAVEWESNGQPENNYKTTPPVLDSDGSFFLYSKLTVDKSRWQQGNVFSCSVLHEALHNHYTQKSLSLSPGK
6 | binds | Fc variant L309G/Q311W/M428L (bacterial display) (other, also called Q311W in M428L and L309G Fc variant) DKTHTCPPCPAPELLGGPSVFLFPPKPKDTLMISRTPEVTCVVVDVSHEDPEVKFNWYVDGVEVHNAKTKPREEQYNSTYRVVSVLTVGHWDWLNGKEYKCKVSNKALPAPIEKTISKAKGQPREPQVYTLPPSRDELTKNQVSLTCLVKGFYPSDIAVEWESNGQPENNYKTTPPVLDSDGSFFLYSKLTVDKSRWQQGNVFSCSVLHEALHNHYTQKSLSLSPGK
7 | binds | Fc variant L309G/Q311V/M428L (bacterial display) (other, also called Q311V in M428L and L309G Fc variant) DKTHTCPPCPAPELLGGPSVFLFPPKPKDTLMISRTPEVTCVVVDVSHEDPEVKFNWYVDGVEVHNAKTKPREEQYNSTYRVVSVLTVGHVDWLNGKEYKCKVSNKALPAPIEKTISKAKGQPREPQVYTLPPSRDELTKNQVSLTCLVKGFYPSDIAVEWESNGQPENNYKTTPPVLDSDGSFFLYSKLTVDKSRWQQGNVFSCSVLHEALHNHYTQKSLSLSPGK
8 | binds | Fc variant L309G/Q311I/M428L (bacterial display) (other, also called Q311I in M428L and L309G Fc variant) DKTHTCPPCPAPELLGGPSVFLFPPKPKDTLMISRTPEVTCVVVDVSHEDPEVKFNWYVDGVEVHNAKTKPREEQYNSTYRVVSVLTVGHIDWLNGKEYKCKVSNKALPAPIEKTISKAKGQPREPQVYTLPPSRDELTKNQVSLTCLVKGFYPSDIAVEWESNGQPENNYKTTPPVLDSDGSFFLYSKLTVDKSRWQQGNVFSCSVLHEALHNHYTQKSLSLSPGK
9 | binds | Fc variant L309G/Q311A/M428L (bacterial display) (other, also called Q311A in M428L and L309G Fc variant) DKTHTCPPCPAPELLGGPSVFLFPPKPKDTLMISRTPEVTCVVVDVSHEDPEVKFNWYVDGVEVHNAKTKPREEQYNSTYRVVSVLTVGHADWLNGKEYKCKVSNKALPAPIEKTISKAKGQPREPQVYTLPPSRDELTKNQVSLTCLVKGFYPSDIAVEWESNGQPENNYKTTPPVLDSDGSFFLYSKLTVDKSRWQQGNVFSCSVLHEALHNHYTQKSLSLSPGK
